# Measurements as given in FireProtDB (doi:10.1002/pro.5560060808).
# Conditions: Aspergillus oryzae (strain ATCC 42149 / RIB 40), Thermal, DSC, reversible: yes, whole UniProt chain shown
# [1] = pH 4.5, Acetic acid-Sodium acetate 0.1 M
protein,measurement,setting,value
"Guanyl-specific ribonuclease T1 wild type, P00651 (protein) MMYSKLLTLTTLLLPTALALPSLVERACDYTCGSNCYSSSDVSTAQAAGYQLHEDGETVGSNSYPHKYNNYEGFDFSVSSPYYEWPILSSGDVYSGGSPGADRVVFNENNQLAGVITHTGASGNNFVECT",Tm,"pH 3, glycine-HCl 0.1 M",52.4 °C
same,heat capacity change of unfolding,"pH 3, glycine-HCl 0.1 M",1.2 kcal/mol/K
same,unfolding enthalpy (calorimetric),"pH 3, glycine-HCl 0.1 M",99.3 kcal/mol
same,Tm,"pH 3.5, glycine-HCl 0.1 M",54.7 °C
same,heat capacity change of unfolding,"pH 3.5, glycine-HCl 0.1 M",1.44 kcal/mol/K
same,unfolding enthalpy (calorimetric),"pH 3.5, glycine-HCl 0.1 M",103 kcal/mol
same,Tm,[1],59.2 °C
same,heat capacity change of unfolding,[1],1.17 kcal/mol/K
same,unfolding enthalpy (calorimetric),[1],109 kcal/mol
same,Tm,"pH 6, MES 0.1 M",62.4 °C
same,heat capacity change of unfolding,"pH 6, MES 0.1 M",1.39 kcal/mol/K
same,unfolding enthalpy (calorimetric),"pH 6, MES 0.1 M",112 kcal/mol
